Data published in patent US20210072250A1.

Key:
P1-Hpu [1] = test: SPR
P1-deoxy [2] = test: SPR
P1-Hpu [3] = test: SPR, ratio of KD values
P1-deoxy [4] = test: SPR, ratio of KD values
P2-Hpu [5] = test: SPR, ratio of KD values
P2-deoxy [6] = test: SPR, ratio of KD values
P4-Hpu [7] = test: SPR, ratio of KD values
P5-Hpu [8] = test: SPR, ratio of KD values
P1-Hpu [9] = test: SPR, Biacore T200, peptide captured, Fab flowed
P1-deoxy [10] = test: SPR, Biacore T200, peptide captured, Fab flowed
P2-Hpu [11] = test: SPR, Biacore T200, peptide captured, Fab flowed
P2-deoxy [12] = test: SPR, Biacore T200, peptide captured, Fab flowed
P4-Hpu [13] = test: SPR, Biacore T200, peptide captured, Fab flowed
P5-Hpu [14] = test: SPR, Biacore T200, peptide captured, Fab flowed
P3-Hpu [15] = test: SPR, ratio of KD values
P3-Hpu [16] = test: SPR, Biacore T200, peptide captured, Fab flowed

Kd (P1-Hpu [1]) [nM]	Kd (P1-deoxy [2]) [nM]	Fold improvement in KD over parent FabHpu98 (P1-Hpu [3]) [fold]	Fold improvement in KD over parent FabHpu98 (P1-deoxy [4]) [fold]	Fold improvement in KD over parent FabHpu98 (P2-Hpu [5]) [fold]	Fold improvement in KD over parent FabHpu98 (P2-deoxy [6]) [fold]	Fold improvement in KD over parent FabHpu98 (P4-Hpu [7]) [fold]	Fold improvement in KD over parent FabHpu98 (P5-Hpu [8]) [fold]	Kd (P1-Hpu [9]) [nM]	Kd (P1-deoxy [10]) [nM]	Kd (P2-Hpu [11]) [nM]	Kd (P2-deoxy [12]) [nM]	Kd (P4-Hpu [13]) [nM]	Kd (P5-Hpu [14]) [nM]	Fold improvement in KD over parent FabHpu24 (P1-Hpu [3]) [fold]	Fold improvement in KD over parent FabHpu24 (P2-Hpu [5]) [fold]	Fold improvement in KD over parent FabHpu24 (P3-Hpu [15]) [fold]	Fold improvement in KD over parent FabHpu24 (P4-Hpu [7]) [fold]	Fold improvement in KD over parent FabHpu24 (P5-Hpu [8]) [fold]	Kd (P3-Hpu [16]) [nM]	Binder
18	20	7.9	6.9	2.6	1.8	2.5	2.5	15	17	78	86	91	70							FabHpu98.61 (Fab) heavy: QSVEESGGRLVTPGTPLTLTCTVSACSLYHCTMNWVRQAPGKGLEWIGDIYTDGNTYYANWAKGRFTISKTSTTVDLKITSPTTEDTATYFCARDSWDASSYYGLDLWGQGTLVTVSSGQPKGPSVFPLAPCCGDTPSSTVTLGCLVKGYLPEPVTVTWNSGTLTNGVRTFPSVRQSSGLYSLSSVVSVTSSSQPVTCNVAHPATNTKVDKTVAPSTCSKPT light: AIKMTQTPSSVSAAVGGTVTINCQASEDIKRYLAWYQQKPGQPPKLLIYAASKLASGVSSRFKGSGSGTEYTLTISGVQCDDAATYYCQQGYTSSNVNNAFGGGTEVVVKGDPVAPTVLIFPPAADQVATGTVTIVCVANKYFPDVTVTWEVDGTTQTTGIENSKTPQNSADCTYNLSSTLTLTSTQYNSHKEYTCKVTQGTTSVVQSFNRGDC
								192		157		541	96							FabHpu24 (Fab) heavy: QEQLKESGGRLVAPGTPLTLTCTVSGFDISDYAMIWVRQAPGKGLEWIGIIYGGSNKLAYAKWAKGRFTISRTSTTVDLKITSPTTEDTATYFCARGYGSMDGYDRLNLWGQGTLVTVSSGQPKGPSVFPLAPCCGDTPSSTVTLGCLVKGYLPEPVTVTWNSGTLTNGVRTFPSVRQSSGLYSLSSVVSVTSSSQPVTCNVAHPATNTKVDKTVAPSTCSKPT light: AAVLTQTPSPVSAAVGGTVTISCQSSETVYRGDWLSWFQKKPGQPPKLLIYDASYLASGVSSRFSGSGSGTHFTLTISGVQCDDAATYYCLGGYYDDADDTFGGGTEVVVKGDPVAPTVLIFPPAADQVATGTVTIVCVANKYFPDVTVTWEVDGTTQTTGIENSKTPQNSADCTYNLSSTLTLTSTQYNSHKEYTCKVTQGTTSVVQSFNRGDC
								6		13		32	7	32	12	> 5	17	13	186	FabHpu24.B (Fab) heavy: QEQLKESGGRLVAPGTPLTLTCTVSGFDISDYAMIWVRQAPGKGLEWIGIIYGVINDLAYAKWAKGRFTISRTSTTVDLKITSPTTEDTATYFCARGYGSMDGYDRLNLWGQGTLVTVSSGQPKGPSVFPLAPCCGDTPSSTVTLGCLVKGYLPEPVTVTWNSGTLTNGVRTFPSVRQSSGLYSLSSVVSVTSSSQPVTCNVAHPATNTKVDKTVAPSTCSKPT light: AAVLTQTPSPVSAAVGGTVTISCRSRQRVYLGDWLSWFQKKPGQPPKLLIYDASFRGDGVSSRFSGSGSGTHFTLTISGVQCDDAATYYCLGGYYDDADDTFGGGTEVVVKGDPVAPTVLIFPPAADQVATGTVTIVCVANKYFPDVTVTWEVDGTTQTTGIENSKTPQNSADCTYNLSSTLTLTSTQYNSHKEYTCKVTQGTTSVVQSFNRGDC
